The experiment deals with human CLDN18.1 (human) (UniProt P56856). Description: flow cytometry on human CLDN18.1-HEK293 cells, antibody at 100 µg/mL.
Sequence of human CLDN18.1 (human) (P56856 whole entry): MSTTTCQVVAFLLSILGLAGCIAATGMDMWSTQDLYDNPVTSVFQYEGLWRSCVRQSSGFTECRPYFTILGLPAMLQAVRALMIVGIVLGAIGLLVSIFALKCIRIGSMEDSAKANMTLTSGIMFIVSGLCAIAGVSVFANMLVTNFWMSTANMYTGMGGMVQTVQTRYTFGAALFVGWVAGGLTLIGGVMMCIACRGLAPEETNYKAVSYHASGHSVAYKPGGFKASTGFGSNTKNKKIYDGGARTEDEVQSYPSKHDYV

B1: humanized antibody NA7-S-H2 (Fc fusion, not shown: a dimerising Fc or GST)
chain: EVQLVESGGGLVQPGGSLRLSCAASGSFFRIVAMGWYRQAPGKGRELVATITRGGSTYYADSMKGRSTISRDNAKNTVYLQMNSLKPEDTAVYYCNVRVEVPFMQPNDYWGQGTLVTVSS
B1: the positive rate of cell binding was 5.5%.
